Results reported in patent US20200085917A1.

Columns and labels:
Assay in all cases: GST pull-down, LC-MS/MS
[1] = target: T1, Sfxn5_IPI:IPI00221602.1 (mouse) (UniProt Q925N0)
T1 sequence (looked up): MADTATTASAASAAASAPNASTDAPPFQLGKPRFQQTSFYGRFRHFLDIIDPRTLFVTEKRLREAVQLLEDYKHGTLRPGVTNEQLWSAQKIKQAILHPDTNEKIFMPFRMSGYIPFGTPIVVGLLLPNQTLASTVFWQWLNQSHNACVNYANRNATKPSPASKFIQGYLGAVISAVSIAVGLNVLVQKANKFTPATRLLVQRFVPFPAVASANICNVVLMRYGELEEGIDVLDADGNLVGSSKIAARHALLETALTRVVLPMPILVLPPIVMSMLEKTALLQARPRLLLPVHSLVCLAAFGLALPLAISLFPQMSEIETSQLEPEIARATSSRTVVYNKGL

[2] = target: Hspa9_IPI:IPI00880839.1 (mouse) (UniProt P38647)
Hspa9_IPI:IPI00880839.1 (mouse), sequence (P38647 47-679 limits assumed): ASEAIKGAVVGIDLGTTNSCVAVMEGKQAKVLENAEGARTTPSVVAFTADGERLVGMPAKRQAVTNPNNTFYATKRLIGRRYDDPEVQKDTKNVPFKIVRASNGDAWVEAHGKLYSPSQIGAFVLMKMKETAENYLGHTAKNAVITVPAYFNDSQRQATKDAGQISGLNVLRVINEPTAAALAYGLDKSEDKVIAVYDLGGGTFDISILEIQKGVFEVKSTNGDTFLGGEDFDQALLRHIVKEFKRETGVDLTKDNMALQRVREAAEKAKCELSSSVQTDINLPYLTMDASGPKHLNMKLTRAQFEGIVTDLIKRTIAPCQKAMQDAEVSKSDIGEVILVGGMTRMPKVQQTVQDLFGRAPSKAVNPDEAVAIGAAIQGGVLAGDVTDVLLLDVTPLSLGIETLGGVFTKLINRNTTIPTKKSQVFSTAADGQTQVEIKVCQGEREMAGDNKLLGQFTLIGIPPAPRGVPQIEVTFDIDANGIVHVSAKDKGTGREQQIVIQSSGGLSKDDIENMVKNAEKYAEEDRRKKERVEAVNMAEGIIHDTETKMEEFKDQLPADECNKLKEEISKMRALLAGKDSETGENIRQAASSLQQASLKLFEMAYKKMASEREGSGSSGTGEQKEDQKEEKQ

[3] = target: Atp1a3_IPI:IPI00122048.2 (mouse) (UniProt Q6PIC6)
[4] = target: Timm17b_IPI:IPI00129504.1 (mouse) (UniProt Q9Z0V7)
Timm17b_IPI:IPI00129504.1 (mouse), sequence (Q9Z0V7 whole entry): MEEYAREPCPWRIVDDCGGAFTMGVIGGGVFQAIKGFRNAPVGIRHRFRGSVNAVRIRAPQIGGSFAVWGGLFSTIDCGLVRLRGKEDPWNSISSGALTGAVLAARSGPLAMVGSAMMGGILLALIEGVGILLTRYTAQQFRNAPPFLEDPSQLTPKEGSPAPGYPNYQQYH

[5] = target: Tomm20_IPI:IPI00120715.1 (mouse) (UniProt Q9DCC8)
Tomm20_IPI:IPI00120715.1 (mouse), sequence (Q9DCC8 whole entry): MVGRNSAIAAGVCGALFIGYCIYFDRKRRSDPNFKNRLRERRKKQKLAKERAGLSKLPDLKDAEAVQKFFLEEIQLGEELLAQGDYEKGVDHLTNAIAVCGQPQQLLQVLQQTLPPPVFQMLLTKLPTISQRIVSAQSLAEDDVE

[6] = target: T2, Acsl6_IPI:IPI00123390.8 (mouse) (UniProt Q91WC3)
T2 sequence (looked up): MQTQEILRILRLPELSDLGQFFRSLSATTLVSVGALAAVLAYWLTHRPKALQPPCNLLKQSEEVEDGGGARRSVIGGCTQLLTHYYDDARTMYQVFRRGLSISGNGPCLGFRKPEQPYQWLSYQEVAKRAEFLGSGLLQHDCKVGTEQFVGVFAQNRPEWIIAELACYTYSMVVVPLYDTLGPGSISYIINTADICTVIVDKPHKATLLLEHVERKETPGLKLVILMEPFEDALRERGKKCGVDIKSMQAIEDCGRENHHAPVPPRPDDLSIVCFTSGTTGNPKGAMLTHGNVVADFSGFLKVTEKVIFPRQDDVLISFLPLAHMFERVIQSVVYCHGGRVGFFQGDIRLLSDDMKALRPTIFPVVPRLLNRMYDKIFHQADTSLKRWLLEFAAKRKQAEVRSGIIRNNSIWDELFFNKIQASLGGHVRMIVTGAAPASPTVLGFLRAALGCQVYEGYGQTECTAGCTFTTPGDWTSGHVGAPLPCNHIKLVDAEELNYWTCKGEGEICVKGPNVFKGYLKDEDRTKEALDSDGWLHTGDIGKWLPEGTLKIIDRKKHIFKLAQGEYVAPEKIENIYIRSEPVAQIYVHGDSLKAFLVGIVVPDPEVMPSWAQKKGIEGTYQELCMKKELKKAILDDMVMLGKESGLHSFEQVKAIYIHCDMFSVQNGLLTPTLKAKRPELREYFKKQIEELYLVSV

[7] = target: IPI:IPI00123176.1_IPI:IPI00123176.1 (mouse)
[8] = target: T3, Nipsnap1_IPI:IPI00115824.1 (mouse) (UniProt O55125)
T3 sequence (looked up): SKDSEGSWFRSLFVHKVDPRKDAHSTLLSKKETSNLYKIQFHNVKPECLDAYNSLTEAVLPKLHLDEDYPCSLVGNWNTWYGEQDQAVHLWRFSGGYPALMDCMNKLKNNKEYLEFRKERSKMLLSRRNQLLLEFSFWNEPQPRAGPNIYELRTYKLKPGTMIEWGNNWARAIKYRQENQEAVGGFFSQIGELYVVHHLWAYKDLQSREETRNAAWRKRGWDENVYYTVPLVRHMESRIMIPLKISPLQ

[9] = target: Fis1_IPI:IPI00132217.1 (mouse) (UniProt Q9CQ92)
Fis1_IPI:IPI00132217.1 (mouse), sequence (Q9CQ92 whole entry): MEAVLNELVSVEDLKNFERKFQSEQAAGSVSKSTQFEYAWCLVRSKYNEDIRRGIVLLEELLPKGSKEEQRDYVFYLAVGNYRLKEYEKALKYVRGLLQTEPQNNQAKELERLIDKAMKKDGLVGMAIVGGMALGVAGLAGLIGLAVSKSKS

[10] = target: Ppdpf_IPI:IPI00133078.1 (mouse) (UniProt Q9CR37)
Ppdpf_IPI:IPI00133078.1 (mouse), sequence (Q9CR37 whole entry): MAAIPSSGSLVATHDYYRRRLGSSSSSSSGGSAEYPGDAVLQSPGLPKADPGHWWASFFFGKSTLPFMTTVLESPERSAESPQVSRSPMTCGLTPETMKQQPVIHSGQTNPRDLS

[11] = target: Echs1_IPI:IPI00454049.4 (mouse) (UniProt Q8BH95)
Echs1_IPI:IPI00454049.4 (mouse), sequence (Q8BH95 28-290 limits assumed): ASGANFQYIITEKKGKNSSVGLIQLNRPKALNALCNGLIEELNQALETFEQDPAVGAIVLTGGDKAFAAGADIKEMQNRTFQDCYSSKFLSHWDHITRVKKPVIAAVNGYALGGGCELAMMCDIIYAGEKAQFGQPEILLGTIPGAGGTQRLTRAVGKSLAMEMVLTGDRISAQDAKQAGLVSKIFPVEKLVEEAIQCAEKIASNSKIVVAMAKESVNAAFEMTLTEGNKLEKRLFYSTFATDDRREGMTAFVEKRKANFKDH

[12] = target: Hsdl1_IPI:IPI00225301.1 (mouse) (UniProt Q8BTX9)
Hsdl1_IPI:IPI00225301.1 (mouse), sequence (Q8BTX9 2-330 limits assumed): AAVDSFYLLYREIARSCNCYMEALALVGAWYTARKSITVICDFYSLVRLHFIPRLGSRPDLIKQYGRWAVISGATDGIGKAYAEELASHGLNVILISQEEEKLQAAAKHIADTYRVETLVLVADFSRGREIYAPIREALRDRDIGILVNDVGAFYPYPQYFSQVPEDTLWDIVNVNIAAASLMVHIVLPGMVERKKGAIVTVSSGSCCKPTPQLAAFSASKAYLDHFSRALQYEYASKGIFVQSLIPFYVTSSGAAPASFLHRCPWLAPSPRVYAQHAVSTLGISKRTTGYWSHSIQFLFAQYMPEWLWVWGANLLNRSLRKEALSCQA

[13] = target: Pptc7_IPI:IPI00421081.3 (mouse) (UniProt Q6NVE9)
Pptc7_IPI:IPI00421081.3 (mouse), sequence (Q6NVE9 75-310 limits assumed): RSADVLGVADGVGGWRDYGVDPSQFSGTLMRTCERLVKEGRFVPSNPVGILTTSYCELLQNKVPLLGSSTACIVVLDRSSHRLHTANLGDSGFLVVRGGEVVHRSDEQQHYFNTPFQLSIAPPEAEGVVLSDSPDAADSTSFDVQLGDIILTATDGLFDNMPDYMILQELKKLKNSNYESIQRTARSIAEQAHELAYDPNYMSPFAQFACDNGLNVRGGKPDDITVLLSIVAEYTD

[14] = target: Uqcrq_IPI:IPI00224210.5 (mouse) (UniProt Q9CQ69)
Uqcrq_IPI:IPI00224210.5 (mouse), sequence (Q9CQ69 whole entry): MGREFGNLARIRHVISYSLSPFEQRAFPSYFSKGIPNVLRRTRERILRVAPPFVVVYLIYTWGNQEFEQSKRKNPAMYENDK

[15] = target: Pycr2_IPI:IPI00123278.1 (mouse) (UniProt Q922Q4)
Pycr2_IPI:IPI00123278.1 (mouse), sequence (Q922Q4 2-320 limits assumed): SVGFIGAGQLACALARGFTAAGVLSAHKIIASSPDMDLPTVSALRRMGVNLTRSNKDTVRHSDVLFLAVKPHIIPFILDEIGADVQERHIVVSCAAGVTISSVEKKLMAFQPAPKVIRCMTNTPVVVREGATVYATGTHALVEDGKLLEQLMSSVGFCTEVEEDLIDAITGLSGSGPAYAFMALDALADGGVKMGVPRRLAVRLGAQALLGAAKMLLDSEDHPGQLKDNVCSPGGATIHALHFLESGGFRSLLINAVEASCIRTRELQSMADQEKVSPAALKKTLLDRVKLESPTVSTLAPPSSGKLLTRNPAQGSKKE

[16] = target: Suclg2_IPI:IPI00459487.3 (mouse) (UniProt Q9Z2I8)
Suclg2_IPI:IPI00459487.3 (mouse), sequence (Q9Z2I8 39-433 limits assumed): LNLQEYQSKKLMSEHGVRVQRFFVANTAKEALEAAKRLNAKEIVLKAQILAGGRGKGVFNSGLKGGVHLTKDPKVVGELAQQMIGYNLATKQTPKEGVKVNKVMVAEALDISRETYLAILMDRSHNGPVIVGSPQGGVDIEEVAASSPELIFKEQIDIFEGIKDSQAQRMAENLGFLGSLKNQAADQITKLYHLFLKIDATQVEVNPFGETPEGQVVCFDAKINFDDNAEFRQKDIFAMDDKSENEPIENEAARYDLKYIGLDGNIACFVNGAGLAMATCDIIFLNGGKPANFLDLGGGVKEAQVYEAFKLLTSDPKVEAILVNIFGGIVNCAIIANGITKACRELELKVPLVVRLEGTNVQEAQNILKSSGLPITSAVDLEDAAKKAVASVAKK

[17] = target: Lyrm7_IPI:IPI00117832.1 (mouse) (UniProt Q9DA03)
Lyrm7_IPI:IPI00117832.1 (mouse), sequence (Q9DA03 whole entry): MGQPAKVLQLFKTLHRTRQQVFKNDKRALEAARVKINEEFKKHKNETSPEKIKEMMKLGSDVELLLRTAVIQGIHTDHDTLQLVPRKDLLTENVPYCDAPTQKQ

[18] = target: Hagh_IPI:IPI00115866.2 (mouse) (UniProt Q99KB8)
[19] = target: Mrpl14_IPI:IPI00133778.1 (mouse) (UniProt Q9D1I6)
Mrpl14_IPI:IPI00133778.1 (mouse), sequence (Q9D1I6 31-145 limits assumed): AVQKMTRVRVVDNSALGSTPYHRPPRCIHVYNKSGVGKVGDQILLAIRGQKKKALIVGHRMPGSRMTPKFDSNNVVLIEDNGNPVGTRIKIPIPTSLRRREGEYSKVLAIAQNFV

[20] = target: Mtx1_IPI:IPI00112327.1 (mouse) (UniProt P47802)
Mtx1_IPI:IPI00112327.1 (mouse), sequence (P47802 whole entry): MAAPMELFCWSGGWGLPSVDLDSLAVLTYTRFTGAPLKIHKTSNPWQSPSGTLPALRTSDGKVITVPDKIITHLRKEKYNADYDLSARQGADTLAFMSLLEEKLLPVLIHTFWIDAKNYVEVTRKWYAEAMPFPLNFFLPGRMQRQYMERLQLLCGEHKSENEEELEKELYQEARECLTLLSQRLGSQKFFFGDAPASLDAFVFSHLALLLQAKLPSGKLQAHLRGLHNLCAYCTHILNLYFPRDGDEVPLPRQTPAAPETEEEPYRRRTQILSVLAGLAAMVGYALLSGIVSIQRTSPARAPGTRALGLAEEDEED

GST-Httex1-23Q, sequence (P08515 1-218, tags or fused parts left off): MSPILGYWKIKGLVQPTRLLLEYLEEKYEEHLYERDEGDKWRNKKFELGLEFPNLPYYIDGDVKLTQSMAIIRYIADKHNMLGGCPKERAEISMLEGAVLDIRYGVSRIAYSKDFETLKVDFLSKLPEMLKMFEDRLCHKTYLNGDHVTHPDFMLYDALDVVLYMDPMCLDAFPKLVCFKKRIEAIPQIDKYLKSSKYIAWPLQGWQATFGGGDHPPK
GST-Httex1-97Q, sequence (P08515 1-218, tags or fused parts left off): as above

GST-Httex1-23Q (from UniProt P08515 1-218; P42858 1-88)
3 peptides: No. of total peptides [1] | No. of unique peptides [1] | No. of total peptides [4] | No. of unique peptides [4]
1 peptides: No. of total peptides [2] | No. of unique peptides [2] | No. of total peptides [5] | No. of unique peptides [5] | No. of total peptides [7] | No. of unique peptides [7] | No. of total peptides [8] | No. of unique peptides [8]
2 peptides: No. of total peptides [3] | No. of unique peptides [3] | No. of total peptides [6] | No. of unique peptides [6]

GST-Httex1-97Q (from UniProt P08515 1-218; P42858 1-88)
2 peptides: No. of total peptides [9] | No. of unique peptides [9] | No. of total peptides [12] | No. of unique peptides [12] | No. of total peptides [16] | No. of unique peptides [16] | No. of total peptides [6] | No. of unique peptides [6] | No. of total peptides [7] | No. of unique peptides [7] | No. of total peptides [18] | No. of unique peptides [18]
1 peptides: No. of total peptides [2] | No. of unique peptides [2] | No. of total peptides [13] | No. of unique peptides [13] | No. of total peptides [14] | No. of unique peptides [14] | No. of total peptides [4] | No. of unique peptides [4] | No. of total peptides [15] | No. of unique peptides [15] | No. of total peptides [17] | No. of unique peptides [17] | No. of total peptides [5] | No. of unique peptides [5] | No. of total peptides [8] | No. of unique peptides [8]
5 peptides: No. of unique peptides [1] | No. of total peptides [11] | No. of unique peptides [11]
3 peptides: No. of total peptides [3] | No. of unique peptides [3] | No. of unique peptides [19] | No. of total peptides [20] | No. of unique peptides [20]
6 peptides: No. of total peptides [1]
4 peptides: No. of total peptides [10] | No. of unique peptides [10] | No. of total peptides [19]
